Assay: yeast display, Sf9 membrane polyspecificity reagent, FACS + sequencing; frameworks hold sequencing errors
How it was run: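 Galactose-induced (36–48 hours) yeast carrying a synthetic nanobody display library were exposed to 10% biotinylated, detergent-solubilized Sf9 membrane reagent at 4 °C for 1 hour. FACS followed streptavidin microbead enrichment, using low and high (top ~1%) gates for expression (anti-HA) and reagent binding (streptavidin). Colony PCR, MiSeq 2 × 250 sequencing and CDR-length filtering followed. Labels for polyreactivity reflect the gate of origin.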

Sequence	polyreactivity (PSR sort gate)
QVQLVESGGGLVQAGGSLRLSCAASGIIFYEYVMGWYRPAPGKERELVAAINRSGGSTYYADSVKGRFTISRDNAKNTVYLQMNSLKPEDTAVYYCAASSTYDGRKYYYWGQGTQVNVSS	high polyreactivity
QVQLVESGGGLVQAGGSLRLSCAASGIIFYEYVMGWYRQAPGKEREVVATISSIGGATYYADSVKGRFTISRDNAKNTVYLQMNSLKPEDTAVDYCAADPEPVVARGGNWYGDDDWGQGTQVTVSS	high polyreactivity
QVQLVESGGGLVQAGGSLRLSCAASGIIFYFYAMGWYRQAPGKERELVATITWSGTSTNYADSVKGRFTISRDNAKNTVYLQMNSLKPEDTAVYYCAARWPTGRNGYWGQGTQVTVSS	high polyreactivity
QVQLVESGGGLVQAGGSLRLSCAASGIIFYGYAMGWYRQAPGKERDLVAAISSGGGTNYADSVKGRFTISRDNAKNTVYLQMNSLIPEDTAVYYCASRQYRRVKQGNYWGQGTQVTVSS	high polyreactivity
QVQLVESGGGLVQAGGSLRLSCAASGIIFYGYAMGWYRQAPGKERELVAAITYSGGSTYYADSVKGRFTISRDNAKNTVYLQMNSLKPEDTAVYYCAAYDAYSPYQALYDYWGQGTQVTVSS	low polyreactivity
QVQLVESGGGLVQAGGSLRLSCAASGIIFYKYAMGWYRQAPGKERELVAVISSGGSTYYADSVKGRFTISRDNAKNTVYLQMNSLKPEYNAVYYCNADCYRRGYDYWGKGTQVTVSS	high polyreactivity
QVQLVESGGGLVQAGGSLRLSCAASGIIFYLYAMGWYRQAPGKERELVAAISGSGGNTYYADSVKGRFTISRDNAKNTVYLQMNSLKPEDTAVYYCAVAVFVWYAVIPYAEYDYWGQGTQVTVSS	high polyreactivity
QVQLVESGGGLVQAGGSLRLSCAASGIIFYPYAMGWYSLAPGKERELVAAISQSGGTTSYADSVKGRFTISRDNAKNTVYLQMNSLKPEDTAVYYCARRVSTRKRYYYWGQGTQVTVSS	high polyreactivity
QVQLVESGGGLVQAGGSLRLSCAASGIIFYRNARGWYRQAPGKERELVAAISSRGGNTYYADSVKGRFTISRDNAKNTVYLQMNSLQPEDTAVYYCARDSYSLSRTYDSWGQGTQVTLSS	high polyreactivity
QVQLVESGGGLVQAGGSLRLSCAASGIIFYRYAMGWYRQAPGKEWELVAAITRRGGSTYYADSVKGRFTISRDNAKNTVYLQMNSLKPEDTGVYYCNARVRYTSADPSYYSWGQGTQVTVSS	high polyreactivity
QVQLVESGGGLVQAGGSLRLSCAASGIIFYRYTMGWYRQAPGKERELVAAITSGGDTNYADSVKGRFTISRDNAKNTVYLQMNSLKPEDTAVYYCNADCWWYLYLYDFWGQGTQVTVSS	high polyreactivity
QVQLVESGGGLVQAGGSLRLSCAASGIIFYSYAMGWYRQAPGKERELVAAISRSSGRTYYADSVKGRFTISRDNAKNTVYLQMNSLKPEDTAVYYCATDYYYYPWEYDYWGQGTQVTVSS	high polyreactivity
QVQLVESGGGLVQAGGSLRLSCAASGIIFYTNAMGWYRQAPGKEREFVAAINTSGGITYYADSVKGRFTISRDNATNTVYLQMNSLKPEDTAVYYCAKDRRYRPPYGYEIEYAYWGQGTQVTVAS	low polyreactivity
QVQLVESGGGLVQAGGSLRLSCAASGIIFYVYALGWYRQAPGKERELVAAISYTSSTYADSVKGLFTISRDNAKNTVYLQMNSLKPEDTAVYYCNTDYSDGYPAFDFWGQGTQVTVSS	low polyreactivity
QVQLVESGGGLVQAGGSLRLSCAASGIIFYVYAMGWYRQAPGKERELVATITRRDDSTYYADSVKGRFTISRDNAKNTVYLQMNSLKPEDTAVSYCNADFWLLSEYDYWGQGTQVTVSS	low polyreactivity
QVQLVESGGGLVQAGGSLRLSCAASGIIFYYNAMGWYRPAPGNERELVAAISGRGGSTYYADSVKGRVTISRDNAKNTVYLQMTSLKPEDTAVYYCAAARVGSRYGYDYWGQGTQGTVSS	low polyreactivity
QVQLVESGGGLVQAGGSLRLSCAASGIIFYYNAMGWYRQAPGKERELVASIRWRGGSTYYADSVKGRFTISRDNAKNTVYLQMNSLKPEDTAVYYCNVVKYVYIYSYWEYYYWGQGTQVTVSS	low polyreactivity
QVQLVESGGGLVQAGGSLRLSCAASGIIFYYYAKGWYRQSPGKERELVAAISSSGGRTRYADSVKGRFTISRDNAKNTVFLQMNSLKPEDSAVYYCAAEFIRGYGESYDYWGQGTQVTVSS	low polyreactivity
QVQLVESGGGLVQAGGSLRLSCAASGIIFYYYAMGWYRQAPGKERELVAAIRSGGSTNYADSVKGRFTISRDNAKNTVYLQMNSLKPEDTAVYYCATRHDYLRAHYGYGSWGQGTQVTVSS	low polyreactivity
QVQLVESGGGLVQAGGSLRLSCAASGIIFYYYAMGWYRQAPGKERELVAAISTSGGRTYYADSVKGRFTISRDNAKSTVYLQMNSLKPEDTAVYYCAKDFWYVTGGWSSGLDYWGQGTQVTVSS	low polyreactivity
QVQLVESGGGLVQAGGSLRLSCAASGIIFYYYGMGWYRQAPGKEREFVAAISTSGGNTYYADSVKGRFTISRDNAKNTVYLQMNSLKPEDTAVYYCAADDLAWGDAGVDYWGQGTEVTVSS	low polyreactivity
QVQLVESGGGLVQAGGSLRLSCAASGIIFYYYGMGWYRQAPGKEREFVAAISTSGGNTYYADSVKGRFTISRDNAKNTVYLQMNSLKPEDTAVYYCAADDWPWGDAGVDYWGQGTQVTVSS	low polyreactivity

Sequence	polyreactivity (PSR sort gate)
QVQLVESGGGLVQAGGSLRLSCAASGIIIGANAMGWYRQAPWKERELLAAITSGGSTYYADSVKGRFTISRDNAKNTVYLQMNSLKPEDTAVYYCAADVFWLYSFTIYDYWGQGTQVTVSS	high polyreactivity
QVQLVESGGGLVQAGGSLRLSCAASGIIIGNNAMGWYRQAPGKERELVAAISRRGGSTYYADSVKGRFTISRDNAKNTVYLQMNSLKPEDTAVYYCAADIYRYNSYDYWGQGTQVTVSS	low polyreactivity
QVQLVESGGGLVQAGGSLRLSCAASGIIIVYNVMGWYRQAPGKERELVAAITNGDSTNYADSVKGRFTISRDNAKNTVYLQMNSLKPEDTAVYYCNVEGGYPLKYDYWGQGTQVSVSS	low polyreactivity
QVQLVESGGGLVQAGGSLRLSCAASGIIIWGNAMAWYRQAPGKERELVAAISSSSGSTYYADSVKGRFTISRDNAKNTVYLQMNRLKPVDTAVYYCAVDTPRSYRAQGAYYYWGQGTQVTVSS	low polyreactivity
QVQLVESGGGLVQAGGSLRLSCAASGIIIWYNTMGWYRQAPGKEREFVARISRRVGSTYYADSVKGRFTISRDNAKNTVYLQMNSLKPEDTAVYYCAASPYQVRYQWGNRLDYWGQGTQVTVSS	high polyreactivity
QVQLVESGGGLVQAGGSLRLSCAASGIIIYYNTMGWYRQAPGKEREFVDAISNSGGRTYYADSVKGRFTISRDNAKNTVYLQMNSLKPEDTADYYCAATYRQYSRSPWYYYCGQGTQVTVSS	high polyreactivity
QVQLVESGGGLVQAGGSLRLSCAASGIILDEYAMGVYSQAPGKERELVAAITWIGGSTYADSVKGRFTISRDNAKNTVYLQMNRLKPEDTAVYYCAADYPSLFVCYGYGWYNYDYWGQGTQVTVSS	low polyreactivity
QVQLVESGGGLVQAGGSLRLSCAASGIILGDYAMGWYRQAPGKERELVAAITSTGGRTYYADSVKGRFTISRDNAKNTVYLQMNSLKPEDTAVYYCAAQGSYRRYRPYYYWGQGTQVTVSS	high polyreactivity
QVQLVESGGGLVQAGGSLRLSCAASGIILGVYAMGWYRQAPGKEREFVAAITSSGGSTYYADSVKGRFTISRDNAKNTVYLQMNSLKPEDTAVYYCAADFDTSVRLYGPTRYDYWGQGTQVTVSS	low polyreactivity
QVQLVESGGGLVQAGGSLRLSCAASGIILNYYAMGWYRQAPGKERELVAAISSGGTTYYADSVKGRFTISRDNAKNTVYLQMNSLKPEDTAVYYCNADYLYSRGGDWRWWDMDYWGQGTQVTVSS	low polyreactivity
QVQLVESGGGLVQAGGSLRLSCAASGIILPYYAMGWYRQAPGKEREFVATISSDGTSTYYADSVKGRFTISRDNAKNTVYLQMNSLKPEDTAVYDCAARIRQNPGGDNSWGQGTQVTVSS	low polyreactivity
QVQLVESGGGLVQAGGSLRLSCAASGIILRRYAMGWYRQAPGKERELVAAISSRGGSTYYADSVKGRFTISRDNAKNTVYLQMNSLKPEDTAVYYCANRPYGRSGGSRYDYWGQGTQVTVSS	high polyreactivity
QVQLVESGGGLVQAGGSLRLSCAASGIILRYYAMGWYRQAPGKERELVAAISGSGTRTYYADSVKGRFTISRDNAKNTVYLQMNSLKPEDTAVYYCAALVWGGYDYWGQGTQVTVSS	high polyreactivity
QVQLVESGGGLVQAGGSLRLSCAASGIILYGYAMGWYRQAPGKERELVAAISRRGGITYYADSVKGRFTISRDNAKNTVYLQMNSLKPEDTAVYYCAADWYGYRQFHGYYWGQGTQVTVSS	high polyreactivity
QVQLVESGGGLVQAGGSLRLSCAASGIILYPYAMGWYRQAPGKERELVAAISWSGGSTYYADSVKGRFTISRDNAKNTVYLQMNSLKPEDTAVYYCAARPRRRYYGYDSWGQGTQVTVSS	high polyreactivity
QVQLVESGGGLVQAGGSLRLSCAASGIILYRYAMGWYRPAPGKERELVAAISRSGGNTYYADSVKGRFTISRDNAKNTVYLQMNSLKPEDTAVYYCAAKPLQGVRRVEYWGQGTQVTVSS	high polyreactivity
QVQLVESGGGLVQAGGSLRLSCAASGIILYYYAMGRYRPAPGKERELVASISRGDSTNYADSVKGRFTISRDNAKNTVYLQMNSLIPEDTAVYCNKDYLPSLYRGFDYWGQGTQVTVSS	low polyreactivity
QVQLVESGGGLVQAGGSLRLSCAASGIILYYYAMGWYRQAPGKERELVAAISSGGNTYYADSVKGRFTISRDNAKNTVYLQMTSLKPEDTAVYYCAAVTVIGGEYDYWGQGTQVTVSS	low polyreactivity
QVQLVESGGGLVQAGGSLRLSCAASGIISAHYAMGWYRQAPGKERELVAAISSSGGSTYYADSVKGRFTISRDNAKNTVYLQMNSLKPEDTAVYYCNAEFYWGYDYWGQGTQVTVSS	low polyreactivity
QVQLVESGGGLVQAGGSLRLSCAASGIISGDYAMGWYRQAPGKERELVARITSGDSTNYADSVKGRFTISRDNAKNTVYLQMNSLNPEDTAVYYCAADRVWAYWTYGYWGQGTQVTVSS	low polyreactivity
QVQLVESGGGLVQAGGSLRLSCAASGIISGEYAMGWYRQAPGKERELVAAIDYSGVSTYYADSVKGRFTISRDNAKNTVYLQMNSLKPEDTAVNYCAAYPSSEYDYWGQGTQVTVSS	low polyreactivity

Source: the nanobody polyreactivity screen of Harvey et al. (2022)
